In patent US20040248211A1, “ICAM-related protein” (priority 1992, published 2004):

Tests used:
Resting PBL = experiment: CD69 and CD25 upregulation after prepulse; type: cell-based, human; details: 24 hours
Description: Resting PBL isolated as described in Section I above were prepulsed on ICR-1.1 or negative control antibodies, washed and incubated on immobilizedanti-CD3 for 24 hours. The cells were then collected, labeled with monoclonal antibodies to the lymphocyte activation antigens CD69, CD25 and CD80 and examined by flow cytometry.

ICAM-R = experiment: Epitope mapping by domain substitution/deletion (summary); type: binding, human
Description: Fusion 81 was screened by ELISA on COS cells transiently transfected with either a domain 1 deleted ICAM-R construct [Example 15.C.1] or with an ICAM-2 construct. The transfected cells were paraformaldehyde fixed on 96-well plates, and the remainder of the assay was performed as previously described, except no Tween 20 was used. The wells that were positive for domain 1 deleted ICAM-R but negative for ICAM-2, were tested on Cos cells transiently transfected with domain 1 deleted ICAM-R or domain 3 deleted ICAM-R by ELISA.
For the anti-ICAM-R monoclonal antibody binding assay, COS cells transfected with constructs encoding the ICAM-R chimeric proteins or control constructs were removed from the plates by EDTA treatment and aliquoted at 2.5×10^5 cells per well in a 96-well round bottom plate. Cells were washed 3 times with ice cold washing buffer (PBS containing 1% BSA and 0.05% sodium azide). […] The samples were analyzed on a Becton-Dickinson FACScan instrument. […]
Table 11 below is a summary of certain characteristics of ICAM-R specific monoclonal antibodies of the invention which have been specifically described in the foregoing examples. In Table 11, the abbreviation “NC” stands for “not conclusive” and the abbreviation “ND” stands for “not determined.” The antibodies marked with an asterisk in Table 11 enhanced activation at low concentrations.

[1] = tested on: cell lines which express ICAM-R; experiment: Homotypic aggregation assay, cell line panel; type: cell-based, human; details: presence and absence of PMA
Description: In order to determine whether ICAM-R is involved in homotypic cell adhesion, aggregation assays were performed with a panel of cell lines which express ICAM-R including T lymphoblastoid cell lines (SupT1, CEM, Molt 4, Hut 78, Jurkat, SKW3), B lymphoblastoid cells lines (Jijoye, Raji), monocytic cell lines (U937, HL60), a myelogenous cell line (KG-1) and the erythroleukemia cell line K562. To determine the function of the ICAM-R molecule, the cells were incubated with various antibodies before aggregation was assayed. Anti-ICAM-R supernatants produced by hybridomas ICR-2.1, ICR-1.1, ICR-4.2, and ICR-3.1 were used as well as antibody preparations known to block aggregation through a β2 integrin pathway: TS1/18 (ATCC HB203) specific for the CD18 molecule, the β-subunit of LFA-1; TS1/22 (ATCC HB202) specific for the CD11a molecule, the α-chain of LFA-1; and LM2/1 (ATCC HB204) specific for the CD11b molecule, the α-subunit of MAC-1. Purified anti-ICAM-1 antibody and hybridoma supernatant directed against the a-chain of the VLA-4 molecule (hybridoma clone 163H, Michael Longenecker, Alberta, Canada) were used as controls.
Aggregation assays were done in duplicate, with and without addition of PMA (50 ng/ml). 3×10^5 cells in RPMI 1640 medium with 10% fetal calf serum were added in a flat-bottomed 96-well microtest plate. […]

SKW3 T cells = experiment: Homotypic aggregation assay, SKW3; type: cell-based, human; details: after four hours, Ig and Fab′ at 1 μg/ml
Description: Aggregation assays were done in duplicate, with and without addition of PMA (50 ng/ml). 3×10^5 cells in RPMI 1640 medium with 10% fetal calf serum were added in a flat-bottomed 96-well microtest plate. When one antibody was tested in an experiment, 50 μl of purified antibody or hybridoma supernatant were added to the wells (PMA was added at the same time to selected wells). When two antibodies were tested in the same experiment, the antibodies were added sequentially to the cells at room temperature and incubated for 30 minutes each (incubation for 15 minutes at 37° C. produced the same results), and then the cells were incubated at 37° C. […] After incubation with the antibody or antibodies, cells were uniformly resuspended and then incubated at 37° C. for 4 to 24 hours. Aggregation scoring was done with an inverted microscope. In each experiment, the efficacy of the PMA stimulation was checked in parallel by stimulating Raji cells with an equal amount of PMA and determining the amount of aggregation blockable by monoclonal antibodies to CD18, CD11 a, and ICAM-1 molecules.
To confirm that aggregation was induced by the anti-ICAM-R antibodies ICR-2.1, ICR-1.1, and ICR-3.1 the aggregation assays were performed using both the whole immunoglobulin (ICR-1.1-Ig) and Fab′ fragments (ICR-1.1-Fab′) purified from the same anti-ICAM-R monoclonal antibody (ICR-1.1). […]

PBMC = PBMC activation markers, immobilized antibody plus low dose anti-CD3; type: cell-based, human; details: immobilized antibody 10 μg/well plus anti-CD3 0.025 μg/well
Description: Ten μg of anti-ICAM-R monoclonal antibodies ICR-1.1 or ICR-4.2 (or control monoclonal antibodies to HLA Class I; Serotec, Oxford, England) were added per well of 96-well flat bottom tissue culture plates either in the presence or absence of anti-CD3 antibody initially added at 0.025 μg/well and washed to remove unbound antibody. Freshly obtained PBMC were immediately added (2×10^5 cells/well). The cells were then incubated for a total of either 16 hours or 3 days at which time the cells were removed and washed 2 times in ice cold FACS buffer. Two×10^5 cells were then resuspended in 50 μl ice cold FACS buffer, and 5 μl of FITC-conjugated anti-CD69, anti-transferrin receptor, anti-IL-2 receptor antibody or anti-FITC conjugated control Ig was added. The cells were incubated at 4° C. for 30 minutes and then washed 2 times in 0.5 ml ice cold FACS buffer. After the final wash the cells were resuspended in 0.5 ml FACS buffer and fluorescence determined by FACScan analysis. […] The effect was more pronounced with antibody ICR-1.1. Similar results were also obtained after 16 hours in culture.

B1: ICR-1.1: anti-ICAM-R monoclonal antibody, IgG2a, domain 1, ATCC HB 11053 (antibody, V domains shown)
VH: QVQLQQSGAELAKPGASVKMSCKASGYTFTVYWMHWVKQRPGQGLEWIGYINPNTDYTEYNQRFQDKATLTADKSSSTAYMQLSSLTSEDSAVYYCARWGGNSYGLDYWGQGTSVTVSS
VL: QIVLTQSPALMSASPGEKVTMTCSASSSVSYIYWYQQKPRSSPKPWIYLTSNLASGVPARFSGSGSGASYSLTISIMEAEDAATYYCQQWKSIPLTFGAGTKLELK
upregulation of CD69 and CD25 in response to immobilized anti-CD3 after prepulse (Resting PBL): do not exhibit decreased ability to upregulate the activation antigens CD69 and CD25
Reactive Domain (ICAM-R): 1
stimulation of homotypic cell-cell aggregation [1]: stimulated homotypic cell-cell aggregation
Aggregation (SKW3 T cells): 3 (50 to 100% cells were in loose clusters)
PBMC activation marker expression after 16 hours (PBMC): induced expression of CD69, but not the transferrin receptor
PBMC activation marker expression after 3 days (PBMC): significant upregulation of both the transferrin and IL-2 receptors
